Laboratory results as given in patent US6602700B1, “Phenolic acid esterases, coding sequences and methods” (University of Georgia Research Foundation, Inc., priority 1998, dated 2003).

Key:
[1] = Feruloyl esterase activity of C. thermocellum enzymes, HPLC assay, FAXX as substrate; format: biochemical; details: E. coli cell free extracts
Experimental: (§1) Unless otherwise noted, all C. thermocellum enzyme assays were performed at 60° C. in 50 mM Na-citrate buffer, pH 6.0. One unit of enzyme activity was defined as the amount of enzyme that released 1 μmol of product min-1, and specific activity is given in units per milligram of protein. Feruloyl esterase activity was measured using a modified version of the assay described by Borneman et al. [Borneman etal. (1990) Anal. Biochem. 190:129-133]. The appropriately diluted protein sample (25 l) was added to 400 μl of buffer plus 8 mM of substrate. Samples were incubated at 60° C. for 5 min. and the reaction was stopped by adding 25 μl of 20% formic acid. Release of ferulic acid was measured via HPLC using a mobile phase of 10 mM Na-formate pH 3 and 30% (vol/vol) methanol. For routine assays, FAXX and FAX3 purified from wheat bran were used as substrates [Borneman et al. (1990) supra]. Ethyl-ferulate and ethyl-p-coumarate esters were a gift from D. E. Akin (USDA, Athens, Ga.). The hydrolysis of these (10 mM) were determined similarly to that of FAXX, but the HPLC analyses were performed with 50% methanol. HPLC runs were with a Hewlett Packard 1100 Series instrument equipped with an autosampler and diode array detector. Ferulic acid and p-coumaric acid were used as standards. To determine the amount of feruloyl and p-coumaroyl groups released from plant cell walls, wheat bran and Coastal Bermuda grass were ground in a Wiley mill to pass through a 250 μm screen. Plant samples of ten milligram were incubated for one hour in 400 μl of 50 mM Na-citrate buffer pH, 6.0 plus 25 μl of enzyme. After the addition of 25 μl of 20% formic acid to stop the reaction, the samples were centrifuged at 16,000×g in a microfuge and then assayed for FA and pCA by HPLC.

[2] = Cellulose binding of XynZ constructs; details: purified from recombinant E. coli
[3] = Feruloyl esterase activity of C. thermocellum enzymes, HPLC assay, FAX3 as substrate; format: biochemical; details: pH 6.0, 60° C.
Experimental: as §1, with “To determine the amount of feruloyl and p-coumaroyl groups released from plant cell walls, wheat bran and Coastal Bermuda grass were ground in a Wiley mill to pass through a 250 μm screen. Plant samples of ten milligram were incubated for one hour in 400 μl of 50 mM Na-citrate buffer pH, 6.0 plus 25 μl of enzyme. After the addition of 25 μl of 20% formic acid to stop the reaction, the samples were centrifuged at 16,000×g in a microfuge and then assayed for FA and pCA by HPLC.” left out

[4] = Storage stability of purified XynZ-derived FAE at 4° C.; format: physicochemical; details: 4° C. in elution buffer (50 mM Tris pH 7.5, 5% glycerol)
Experimental: Alternatively, the 100,000×g supernatant after the heat treatment was concentrated to a volume of 2 ml with a Centricon 10 concentrator (Amicon, Millipore, Bedford, Mass.) and then applied to a TSK3000SW column (Tosohaas) which was run with 50 mM Tris pH 7.5 and 5% glycerol as solvent.

[5] = Routine feruloyl esterase assay of purified recombinant XynZ polypeptides (purification tables); format: biochemical; details: purified preparation after heat treatment and TSK 3000SW gel filtration
Experimental: as §1, with “To determine the amount of feruloyl and p-coumaroyl groups released from plant cell walls, wheat bran and Coastal Bermuda grass were ground in a Wiley mill to pass through a 250 μm screen. Plant samples of ten milligram were incubated for one hour in 400 μl of 50 mM Na-citrate buffer pH, 6.0 plus 25 μl of enzyme. After the addition of 25 μl of 20% formic acid to stop the reaction, the samples were centrifuged at 16,000×g in a microfuge and then assayed for FA and pCA by HPLC.” left out

[6] = C. thermocellum enzyme stability experiments (heat incubation, residual activity); format: physicochemical
Experimental: Purified enzyme at a concentration of 13 μg/nMl was placed in a water bath at the appropriate temperature and incubated at intervals of one hour. Enzyme aliquots (25 μl) were removed and assays were performed in triplicate using FAX3 as a substrate as described above. FAE/CBD was tested at temperatures of 500, 600, and 70° C. while FAE was tested at 70°, 80° and 90° C.

Molecule | Feruloyl esterase activity (hydrolysis of FAXX) of construct expressed in E. coli [1] | Removal of feruloyl esterase activity by Avicel and acid swollen cellulose adsorption (cellulose binding) [2] | Km [3] [mM] | Vmax [3] | Feruloyl esterase activity (hydrolysis of FAXX) of construct expressed in E. coli ([1]; listed as XynZ UD) | Storage stability [4] | Specific Activity [5] [U/mg] | Relative activity after heat incubation ([6]; 80° C., after three hours of incubation) | Relative activity after heat incubation ([6]; 90° C., after 1 hour of incubation) | Thermal stability ([6]; temperatures up to 70° C. for 6 hours)
FAE287: XynZ amino acids 20-307; lacks the CBD but contains the proline rich linker (protein, listed as Clostridium thermocellum) LVTISSTSAASLPTMPPSGYDQVRNGVPRGQVVNISYFSTATNSTRPARVYLPPGYSKDKKYSVLYLLHGIGGSENDWFEGGGRANVIADNLIAEGKIKPLIIVTPNTNAAGPGIADGYENFTKDLLNSLIPYIESNYSVYTDREHRAIAGLSMGGGQSFNIGLTNLDKFAYIGPISAAPNTYPNERLFPDGGKAAREKLKLLFIACGTNDSLIGFGQRVHEYCVANNINHVYWLIQGGGHDFNVWKPGLWNFLQMADEAGLTRDGNTPVPTPSPKPANTRIEAEDYD | exhibited feruloyl esterase activity |  |  |  |  |  |  |  |  | 
FAE: C. thermocellum XynZ amino acids 20-286 expressed in E. coli; feruloyl esterase domain without linker or CBD (protein, listed as Clostridium thermocellum) LVTISSTSAASLPTMPPSGYDQVRNGVPRGQVVNISYFSTATNSTRPARVYLPPGYSKDKKYSVLYLLHGIGGSENDWFEGGGRANVIADNLIAEGKIKPLIIVTPNTNAAGPGIADGYENFTKDLLNSLIPYIESNYSVYTDREHRAIAGLSMGGGQSFNIGLTNLDKFAYIGPISAAPNTYPNERLFPDGGKAAREKLKLLFIACGTNDSLIGFGQRVHEYCVANNINHVYWLIQGGGHDFNVWKPGLWNFLQMADEAGLTRDGN | exhibited feruloyl esterase activity | not | 10.5 | 28.2 μmol ferulic acid released min-1 mg-1 | high levels of feruloyl esterase activity | stable for at least a month | 26.6 | around 50% | most of the relative activity was destroyed | stable
FAE227: XynZ amino acids 20-247; expressed but inactive truncation (protein, listed as Clostridium thermocellum) LVTISSTSAASLPTMPPSGYDQVRNGVPRGQVVNISYFSTATNSTRPARVYLPPGYSKDKKYSVLYLLHGIGGSENDWFEGGGRANVIADNLIAEGKIKPLIIVTPNTNAAGPGIADGYENFTKDLLNSLIPYIESNYSVYTDREHRAIAGLSMGGGQSFNIGLTNLDKFAYIGPISAAPNTYPNERLFPDGGKAAREKLKLLFIACGTNDSLIGFGQRVHEYCVANN | inactive |  |  |  |  |  |  |  |  | 
